For one protein, Km results are on record in ChEMBL document CHEMBL2073844, “Pharmacological characterization of the murine and human orthologs of multidrug-resistance protein in transfected human embryonic kidney cells” (Mol Pharmacol, 1997).

Substrate in data set [1]: CCCCC/C=C\C\C=C/C=C/C=C/[C@@H](SC[C@@H](NC(=O)CC[C@H](N)C(=O)O)C(=O)NCC(=O)O)[C@@H](O)CCCC(=O)O
Briefly: cells, lysate or membranes named.

Substrate in data set [2]: C[C@]12CC[C@@H]3c4ccc(O)cc4CC[C@H]3[C@@H]1CC[C@@H]2O[C@@H]1O[C@H](C(=O)O)[C@@H](O)[C@H](O)[C@H]1O
Put plainly: cells, lysate or membranes named.

B1: Multidrug resistance-associated protein 1 (Mus musculus) (protein)
chain: MALRSFCSADGSDPLWDWNVTWHTSNPDFTKCFQNTVLTWVPCFYLWSCFPLYFFYLSRHDRGYIQMTHLNKTKTALGFFLWIICWADLFYSFWERSQGVLRAPVLLVSPTLLGITMLLATFLIQLERRKGVQSSGIMLTFWLVALLCALAILRSKIISALKKDAHVDVFRDSTFYLYFTLVLVQLVLSCFSDCSPLFSETVHDRNPCPESSASFLSRITFWWITGMMVHGYRQPLESSDLWSLNKEDTSEEVVPVLVNNWKKECDKSRKQPVRIVYAPPKDPSKPKGSSQLDVNEEVEALIVKSPHKDREPSLFKVLYKTFGPYFLMSFLYKALHDLMMFAGPKILELIINFVNDREAPDWQGYFYTALLFVSACLQTLALHQYFHICFVSGMRIKTAVVGAVYRKALLITNAARKSSTVGEIVNLMSVDAQRFMDLATYINMIWSAPLQVILALYFLWLSLGPSVLAGVAVMILMVPLNAVMAMKTKTYQVAHMKSKDNRIKLMNEILNGIKVLKLYAWELAFQDKVMSIRQEELKVLKKSAYLAAVGTFTWVCTPFLVALSTFAVFVTVDERNILDAKKAFVSLALFNILRFPLNILPMVISSIVQASVSLKRLRIFLSHEELEPDSIERRSIKSGEGNSITVKNATFTWARGEPPTLNGITFSIPEGALVAVVGQVGCGKSSLLSALLAEMDKVEGHVTLKGSVAYVPQQAWIQNDSLRENILFGHPLQENYYKAVMEACALLPDLEILPSGDRTEIGEKGVNLSGGQKQRVSLARAVYSNSDIYLFDDPLSAVDAHVGKHIFEKVVGPMGLLKNKTRILVTHGISYLPQVDVIIVMSGGKISEMGSYQELLDRDGAFAEFLRTYANAEQDLASEDDSVSGSGKESKPVENGMLVTDTVGKHLQRHLSNSSSHSGDTSQQHSSIAELQKAGAKEETWKLMEADKAQTGQVQLSVYWNYMKAIGLFITFLSIFLFLCNHVSALASNYWLSLWTDDPPVVNGTQANRNFRLSVYGALGILQGAAIFGYSMAVSIGGIFASRRLHLDLLYNVLRSPMSFFERTPSGNLVNRFSKELDTVDSMIPQVIKMFMGSLFSVIGAVIIILLATPIAAVIIPPLGLVYFFVQRFYVASSRQLKRLESVSRSPVYSHFNETLLGVSVIRAFEEQERFIHQSDLKVDENQKAYYPSIVANRWLAVRLECVGNCIVLFAALFAVISRHSLSAGLVGLSVSYSLQITAYLNWLVRMSSEMETNIVAVERLKEYSETEKEAPWQIQETAPPSTWPHSGRVEFRDYCLRYREDLDLVLKHINVTIEGGEKVGIVGRTGAGKSSLTLGLFRINESAEGEIIIDGVNIAKIGLHNLRFKITIIPQDPVLFSGSLRMNLDPFSQYSDEEVWMALELAHLKGFVSALPDKLNHECAEGGENLSVGQRQLVCLARALLRKTKILVLDEATAAVDLETDNLIQSTIRTQFEDCTVLTIAHRLNTIMDYTRVIVLDKGEVRECGAPSELLQQRGIFYSMAKDAGLV
Regarding B1, the Km in data set [1] is 0.06 µM; in data set [2] it was 2.9 µM.

The term Km denotes the concentration of substrate that gives half-maximal velocity.
